From patent US20220306762A1
pKd: −log10 of the molar value.

Assays:
[1] = molecular target: His-tagged human CD38 (ACRO Biosystems CD8-H5224) (human) (UniProt P28907); assay: SPR (second run), His-tagged CD38
[2] = molecular target: CD38 on Daudi target cells (UniProt P28907); assay: cell-based or functional assay
[3] = molecular target: His-tagged human CD38 (ACRO Biosystems cat #CD8-H5224) (human) (UniProt P28907); assay: SPR (Carterra LSA), antibody captured by anti-human Fc, His-tagged CD38 injected
[4] = molecular target: His-tagged human CD38 (ACRO Biosystems cat #CD8-H5224) (human) (UniProt P28907); assay: SPR (Carterra LSA), His-CD38 analyte

| pKd [1] | ADCC EC50 [2] [ng/mL] | Lowest Remaining Target % [2] [%] | Max RLU [2] [RLU] | PBMC ADCC EC50 [2] [ng/mL] | pKd [3] | pKd [4] | Substance |
| --- | --- | --- | --- | --- | --- | --- | --- |
| 7.43 | – | – | – | – | – | – | Dara Benchmark (antibody) |
| – | 68.2 | 57 | 2.47e+06 | 0.0983 | – | – | Daratumumab (benchmark) (antibody) |
| 8.24 | 12.3 | – | 3.16e+06 | 0.0406 | 8.24 | 8.57 | Isa Benchmark (antibody) |
